assay: yeast display, Sf9 membrane polyspecificity reagent, FACS + sequencing; frameworks hold sequencing errors
In short: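 Nanobodies came from a synthetic yeast display library in Saccharomyces cerevisiae BJ5465, induced with galactose for 36–48 hours and stained for 1 hour at 4 °C with 10% biotinylated, detergent-solubilized Sf9 membrane reagent. Cells were enriched on streptavidin microbeads and then FACS-sorted, with low and high (top ~1%) gates set on anti-HA fluorescence for expression and streptavidin fluorescence for reagent binding. Each polyreactivity label reflects the gate a clone came from. Genes were amplified by colony PCR, sequenced by MiSeq 2 × 250 and filtered by CDR length.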

Sequence	polyreactivity (PSR sort gate)
QVQLVESGGGLVQAGGSLRLSCAASGSIFRRNAMGWYRQAPGKARELVATITSSGGSTYYADSVKGRFTISRDNAKNTVYLQMNSLKPEDTAVYDCATDGQSPYYIYYWGQGTQVTVSS	low polyreactivity
QVQLVESGGGLVQAGGSLRLSCAASGSIFRRNAMGWYRQAPGKERELVAAISQSGGSTYYADSVKGRFTISRDNAKNTVYLQMNSLKPEDTAVYYCAAKHRVYGTRGYGYDYWGQGTQVTVSS	high polyreactivity
QVQLVESGGGLVQAGGSLRLSCAASGSIFRRNAMGWYRQAPGKERELVAGISGGGSTYYADSVKGRFTISRDNAKNTVYLQMNSLKPEDTAVYYCSTDKHYRWAGFDYWGQGTQVTVSS	low polyreactivity
QVQLVESGGGLVQAGGSLRLSCAASGSIFRRNAMGWYRQAPGKERELVATITSDGSTDYADSVKGRFTISRDNAKNTVYFQMNSLKPEDTAVYYCAVAYLWRPYDFREFDYWGQGTQVTVSS	low polyreactivity
QVQLVESGGGLVQAGGSLRLSCAASGSIFRRYAIGWYRQAPGKERELVAAISGRGGSTYYADSVKGRFTISRDNAKNTVYLQMNSLKPEDTAVYYCNADRYYSHYSYYYWGQGTQVTVSS	high polyreactivity
QVQLVESGGGLVQAGGSLRLSCAASGSIFRRYAMGWYRQAPGKERELVAAITNGGGSTYYADSVKGRFTISRDNAKNTVYLQMNSLKPEDSAVYYCARRLASNYGAYDYWGQGTQVTVSS	low polyreactivity
QVQLVESGGGLVQAGGSLRLSCAASGSIFRRYAMGWYRQAPGKERELVASITSSVGRTYYADSVKGRFTISRDNAKNTVYLQMNSLKPEDTAVYYCAVYVGRWGAGGKGDYWGQGTQVTVSS	low polyreactivity
QVQLVESGGGLVQAGGSLRLSCAASGSIFRRYAMGWYRQAPGKESELVAAITWGGGRTYYADSVKGRFTISRDNAKNTVYLQMNSLKPEDTAVYYCNAERSVYASGKSYLYDYWGQGTQVTVSS	high polyreactivity
QVQLVESGGGLVQAGGSLRLSCAASGSIFRRYDMGWYRQAPGKERELVAAISSSGGSTYYADSVKGRFTISRDNAKNTVYLQMNSLKPEDTAVYYCAADIYDDDRSEYTEYDYWGQGTQVTVSS	low polyreactivity
QVQLVESGGGLVQAGGSLRLSCAASGSIFRRYTMGWYRQAPGKERELVAAISRVGNTNYADSVKGRFTISRDNAKNTVYLQMNSLKPEDTAVYYCAADLYWLLYDEDWYWWEYESDSWGQGTQVTVSS	high polyreactivity
QVQLVESGGGLVQAGGSLRLSCAASGSIFRSNAMGWYRQAPGKERELVAVIRSGGTTNYADSVKGRFTISRDNAKNTVYLQMNSLKPEDTAVYYCAAYGAHGGVIVVEGDYWGQGTQVTVSS	low polyreactivity
QVQLVESGGGLVQAGGSLRLSCAASGSIFRSNAMGWYRQAPGQERELVAAISRSGGRTYYADSVKGRFTISRDNAKNTVYLQMNSLKPEDTAVYYCAAQVVRSLKYEYWGQGTQLTVSS	high polyreactivity
QVQLVESGGGLVQAGGSLRLSCAASGSIFRSYAMGWYRQAPGKERELDAAISRRGSSTYYADSVKGRFTISRDIAKNTVYLQMISLKPEDSAVYYCNRVRYPRVDYWGQGTQVTVSS	high polyreactivity
QVQLVESGGGLVQAGGSLRLSCAASGSIFRSYAMGWYRQAPGKERELVASISRRGGSTYYADSVKGRFTISRDNAKNTVYLQMNSLKPEDTAVYYCAADHYHGYWKYDYWGQGTQVTVSS	low polyreactivity
QVQLVESGGGLVQAGGSLRLSCAASGSIFRSYAMGWYRQSPGKERELVAAITRSGGSTYYADSVKGRFTISRDNAKNTVDLQMNSLKPEDTAVYYCAAEYYSYTWGWGHGYWGQGTQVTVSS	high polyreactivity
QVQLVESGGGLVQAGGSLRLSCAASGSIFRTNAMGWYRQAPGKEREFVASISSDSGNTYYADSVKGRFTISRDNAKNTVYLQMNSLKPEDTAVYYCARRKVRYWSYRAANYYWGQGTQVTVSS	low polyreactivity

Sequence	polyreactivity (PSR sort gate)
QVQLVESGGGLVQAGGSLRLSCAASGSIFRTNAMGWYRQAPGKEREYVATISSDSGNTYYADSVKGRFTISRDNAKNTVYLQMNSLKPEDTAVYYCARRKVRYWSYRAANYYWGQGTQVTVSS	low polyreactivity
QVQLVESGGGLVQAGGSLRLSCAASGSIFRVNAMGWYRQAPGKERELVAAITDGGITNYADSVKGRFTISRDNAKNTVYLQMNSLKPEETAVYYCAADTDRDFHYVVPTYDYWGQGTQVTVSS	low polyreactivity
QVQLVESGGGLVQAGGSLRLSCAASGSIFRVYAMGWYRHAPGKERELVATITSSGGFTYADSVKGRFTISRDNAKNTVYLQMNSLKQEDTAVYYCATVRFGQYWVPSGYSWGYTYDYWGQGTQVTVSS	high polyreactivity
QVQLVESGGGLVQAGGSLRLSCAASGSIFRVYAMGWYRQAPGKEREFVAAISYSTGSTYADSVKGRFTISRDNAKNTVYLQMNSLKPEDTAVYYCNARFRYGSRDEYDYWGQGTQVTVSS	low polyreactivity
QVQLVESGGGLVQAGGSLRLSCAASGSIFRVYAMGWYRQAPGKERELVAAITRGGSTYADSVKGRFTISRDNAKNTVYLQMNSLKPEDTAVYYCAAQRTLYRSGFDSWGQGTQVTVSS	high polyreactivity
QVQLVESGGGLVQAGGSLRLSCAASGSIFRVYAMGWYRQAPGKERELVAVISIAGRTNYADSVKGRFTISRDNAKNTVYLQMNSLKPEDTAVYYCNAEWDLNHLYDSWGQGTQVTVSS	low polyreactivity
QVQLVESGGGLVQAGGSLRLSCAASGSIFRVYAMRWYRQAPGKERELVAAISKSGSSTYYADSVKGRFTISRDNAKNTVYLQMNSLKPEDTAVYYCAARRVLGEYGYWGQGTQVTVSS	high polyreactivity
QVQLVESGGGLVQAGGSLRLSCAASGSIFRWNAMGWYRQAPGKERDLVDVINSSVGSTYYADSVKGRFTISRDNAKNTVYLQMYSLKPEDTAVYYCAADVELGWGNSVAYEYWGQGTQVTVSS	low polyreactivity
QVQLVESGGGLVQAGGSLRLSCAASGSIFRWYAMGWYRQAPGKERDLVAAITWSGGRTYYADSVKGRFTISRDNAKNTVYLQMNSLKPEDTAVYDCAKPALVTSYRVGYNYWGQGTQVTVSS	high polyreactivity
QVQLVESGGGLVQAGGSLRLSCAASGSIFRWYAMGWYRQAPGKERELVASISSGTRTNYADSVKGRFTISRDNAKNTVYLQMNSLKPEDTAVYYCAAPYVKRWWGYGYWGQGTQVTVSS	high polyreactivity
QVQLVESGGGLVQAGGSLRLSCAASGSIFRWYAMGWYRQAPGKERELVAVISYGGGSTYYADSVKGRFTISRDNAKNTVYLQMNSLKPEDTAVYYCAADPTWRYYYHYTYYYWGQGTQVTVSS	high polyreactivity
QVQLVESGGGLVQAGGSLRLSCAASGSIFRWYDMGWYRQAPGKERELVAAITWSGSTYYADSVKGRFTISRDNAKNTVYLQMNSLKPEDTAVYYCAAGSRYCNAETYSWYDYWGQGTQVTVSS	high polyreactivity
QVQLVESGGGLVQAGGSLRLSCAASGSIFRWYDMGWYRQAPGKERELVAAITWSGSTYYADSVKGRFTISRDNAKNTVYLQMNSLKPEDTAVYYCAAGSRYSYAYTMDYWGQGTQVTVSS	high polyreactivity
QVQLVESGGGLVQAGGSLRLSCAASGSIFRYNAMGWYRQAPGKEREFVAIISYAGVRTYYADSVKGRFTISRDNAKNTVYLQMNSLKPEDTAVYYCAADFKQKGHRTRTTYWGQGTQVTVSS	high polyreactivity
QVQLVESGGGLVQAGGSLRLSCAASGSIFRYNAMGWYRQAPGKERELVAAISWSGGSTYYADSVKGRFTISRDNAKNTVYLQMNSLKPEDTAVYYCATRYYVNVPGRRYGYWGQGTQVTVSS	low polyreactivity
